The values that follow come from paper PMC6963987.

Among the targets are FcγRIIIa V158; FcγRIIIa F158 (UniProt P08637); FcγRIIa R131; FcγRIIb/c (UniProt P31994).
Experiment in all cases: SPR; Fcγ receptors immobilised, trastuzumab glycan variants as analyte; Biacore T200; relative binding (%) normalised with trastuzumab starting material; n = 3; procedure in ref. 54
For orientation: Surface plasmon resonance follows binding to a sensor surface in real time, without labels.

UniProt P31994, sequence (P31994 43-217): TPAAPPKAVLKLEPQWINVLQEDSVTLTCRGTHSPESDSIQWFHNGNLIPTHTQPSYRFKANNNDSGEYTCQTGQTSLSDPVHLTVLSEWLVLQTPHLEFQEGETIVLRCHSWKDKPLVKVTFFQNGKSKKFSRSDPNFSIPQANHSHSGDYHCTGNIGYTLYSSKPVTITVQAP

As for “Trastuzumab hyper-galactosylated variant G2F (antibody)”, the relative binding (% of trastuzumab starting material) with FcγRIIIa V158 was 120%; in the test with FcγRIIIa F158 it was 124%.
“Trastuzumab α-2,3-sialylated variant G2S2F ST3 (antibody)” returned a relative binding (% of trastuzumab starting material) with FcγRIIIa F158 of 62%.
Take “Trastuzumab α-2,6-sialylated variant G2S2F ST6 (antibody)”: the relative binding (% of trastuzumab starting material) with FcγRIIIa V158 amounted to 121%; with FcγRIIIa F158, 150%; with FcγRIIa R131, 130%; with FcγRIIb/c, 162%.
